Assay results reported in doi:10.1101/2022.08.07.503104, “A tripartite complex HIV-1 Tat-cyclophilin A-capsid protein enables Tat encapsidation that is required for HIV-1 infectivity” (bioRxiv, 2022).

Columns and labels:
[1] = target: T1, Recombinant human CypA (human, UniProt P62937 1-165, Monolith RED-NHS 2nd generation fluorescent label, in the MST experiments only); test: MST; fluorescently labeled CypA at 50 nM, partner titrated; where indicated CypA first mixed with 20 µM CA or 1 µM Tat; 20°C, 150 mM NaCl, 50 mM citrate, pH 7.3, 0.05% Tween; conditions: both partners purified
T1 construct: extra N-terminal gly residue left after TEV cleavage; cyclophilin A (CypA), human; Unlabeled in SEC and SPR, labeled in MST; also called cyclophilin A; labeled CypA; source: E. coli BL21 λDE3, purified (Ni-NTA, TEV cleavage, second Ni-NTA); not shown: His6, N-terminal, cleaved
T1 sequence (P62937 other isoform, or with tags, fused parts or gaps): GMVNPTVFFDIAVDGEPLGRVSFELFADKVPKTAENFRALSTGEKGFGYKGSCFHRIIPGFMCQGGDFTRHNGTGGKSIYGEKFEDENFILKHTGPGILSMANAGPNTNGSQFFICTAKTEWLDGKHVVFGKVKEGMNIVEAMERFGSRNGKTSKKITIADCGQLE

[2] = target: T1, Recombinant human CypA; test: SPR; Tat immobilised on a CM5S chip by amine coupling (~11000 RU); CypA or equimolecular CypA/CA mix at 370-6000 nM, one cycle kinetic titration, or CA at 2 µM; 25°C, 20 mM phosphate, 30 mM citrate, pH 7, 150 mM NaCl, 0.05% P20; two state fitting model; conditions: both partners purified

B1: Recombinant Tat (86 residues, BH10 isolate) (natural protein)
chain: MEPVDPRLEPWKHPGSQPKTACTNCYCKKCCFHCQVCFITKALGISYGRKKRRQRRRPPQGSQTHQVSLSKQPTSQSRGDPTGPKE
notes: HIV-1 Tat, BH10 isolate, 86 residues; source: E. coli, purified (as Vendeville et al., 2004); lyophilized
Kd [1]: 243 ± 23 nM | Kd [2]: 255 ± 10 nM
